Laboratory results published in article PMC4029521.

Tested on: T1, AirR (Staphylococcus aureus NCTC8325), ORF:f68b8ed8
T1 sequence: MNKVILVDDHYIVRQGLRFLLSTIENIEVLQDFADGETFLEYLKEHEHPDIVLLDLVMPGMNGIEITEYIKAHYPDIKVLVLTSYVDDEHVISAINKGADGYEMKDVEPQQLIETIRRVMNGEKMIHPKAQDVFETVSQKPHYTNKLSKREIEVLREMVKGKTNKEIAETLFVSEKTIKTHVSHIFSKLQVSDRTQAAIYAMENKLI
Assay: EMSA

Sequence: AGCTACACGTAATTTCGCGCTTCGTGCTCTGTTATTGTCATCTAAATCTTCTTCTGTAGCGGTAATCGGTTTACGATTAACACGCTTTAACTTAGGTGTATATGCTTCTGGTATAACTGGTAATCCTCTTGGTACCTCTGGACCTTTTTCATATTCTTGGAACACCTGTTTACATAAACGATCTTCTAAAGAATGGAAAGTGATTACCGAAATCCTGCCATCTACTTTCACTAATTCAATCGCTTGTTCTATTGAATC (double strand) [pbp1 promoter (p-pbp1)]
- binding: binds

Sequence: GAATCGCGAACATGGACGAACGATTAGTTGTTAATTTTGAAAATTTATAAAAGGTTAAACGAATGCAGTGAGAGATGTCATTTTAATATCAATGTATGGCTATTTTGTAATGACAATGTAATGAGTTTAGTAAAACATTTCGGGAATATTAAATAGTTGGAAAATGAGAATTAAATCCTTTACTCAGTTGTCTAATTCTTTTAGTATGTGCAGTACAGTTTAATTGAAAACTAACTTTAACTTTAATGGAGGATGTTTTATACATGAAAAAATTAACAGCAGCAGCGATTGC (double strand) [lytM promoter (p-lytM)]
- binding: binds
